Reference: the Human Domainome abundance scans (Beltran et al. 2025)

B1: Activity-dependent neuroprotector homeobox protein, residues 770 to 810; numbered along this chain, Q9H2P0 (parent)
chain: FLTKYFNKQPYPTRREIEKLAASLWLWKSDIASHFSNKRKK

Variants of: B1
Assay: abundance fitness (aPCA) (normalised: wild type 0, dead -1); higher = more abundant; growth selection in yeast, the domain comes from the species named
Settings: Homo sapiens

Abundance fitness of substitutions, site by site:
E18: D -0.109; V -0.509; W -0.356; C -0.232; H -0.257; P -0.189; M 0.075; N -0.213; I -0.749; R 0.066; Y -0.378; K 0.172; Q 0.061; T -0.176; A -0.025
I17: Q -0.89; P -0.296; R -0.294; C -0.024; N -0.687; H -0.237; V -0.025; Y -0.1; K -0.404; E -0.61; D -0.604; F -0.205; S -0.455; L -0.019; G -0.158; A -0.127; W 0.18; M 0.239
T13: V 0.088; F 0.044; M 0.28; E -0.369; A 0.016; I 0.101; Q -0.098; R -0.048; L 0.132; S -0.079; Y 0.083; K -0.046; D -0.26; W 0.221; H -0.135; G 0.16
Y11: G 0.293; R -0.035; L -0.006; C 0.086; W 0.003; T 0.135; V 0.031; M 0.058; I 0.05; P -0.124; E 0.02; H 0.076; N 0.124; F -0.182; D -0.086; A 0.137; Q 0.181; S 0.275
L24: I 0.051; D -0.033; T -0.212; P -0.289; E -0.82; A -0.026; F -0.197; Q -0.783; W -0.121; S -0.483; K -0.321; G -0.228; C -0.122; R -0.339; V 0.123
R14: L -0.14; P -0.391; D -0.826; Y -0.13; Q -0.265; M -0.028; K -0.048; W -0.262; A -0.595; F -0.392; V -0.388; H -0.514; S -0.387
A22: T -0.087; Y -0.303; Q 0.045; D -0.25; M -0.084; R -0.027; F -0.594; C -0.229; V -0.344; E -0.162; L -0.396; W -0.193; I -0.368; N -0.015; S -0.117; G -0.058; K 0.075
T3: W -0.786; Y -0.619
L20: T -0.106; V -0.025; P -0.124; F 0.042; D -0.322; N -0.152; A -0.038; G -0.181; H -0.269; Q -0.462; S -0.243; R -0.144; W 0.257; C 0.124; K 0.036; I -0.005; E -1.02; Y 0.064
K4: R -0.549; T -0.877; A -0.735; S -0.749; L -1; C -0.698; P -0.904; V -0.815; D -0.644; N -0.419; G -1.07; Q -0.646
W25: K 0.361; H 0.071; F -0.168; D -0.159; A 0.064; C -0.14; E 0.13; L 0.097
Q9: S -0.139; V -0.269; D -0.169; F -0.233; G -0.133; R 0.039; I -0.074; W -0.823; Y -0.409; L -0.149; C -0.014; N -0.007; T -0.053; A -0.269; P -0.698; E -0.075
F6: Y -0.295; P -0.942; I -0.237; R -0.163; H -0.794; T -0.328; E -0.821; S -0.76; C -0.223; D -0.837; G -0.442; K -0.098; V -0.369; L -0.157; M -0.209; A -0.235
R15: H -0.384; G -0.088; K 0.093; E -0.02; T -0.005; L -0.211; C -0.182; M -0.204; N -0.173; I -0.252; V -0.149; A 0.116; Q -0.162; D -0.278; S -0.018; W -0.326
P10: G -0.129; I -0.114; N 0.09; S 0.06; V 0.062; C 0.011; W 0.059; K -0.139; E 0.158; Y -0.155; A -0.095; T 0.011; L -0.15; H -0.153
K19: Q -0.276; V -0.502; S -0.413; L -0.63; N -0.144; I -0.686; E -0.241; P -0.864; D -0.099; G -0.221; H -0.413; A -0.52; W -0.79; C -0.502; T -0.302; Y -0.764; F -0.944
P12: Q -0.036; K 0.062; A 0.048; M -0.114; G 0.099; V -0.584; T -0.142; R -0.128; L -0.22; S -0.102; W -0.235; F -0.402; E 0.059; D 0.092
A21: G 0.202; R -0.021; V -0.128; W 0.008; K 0.138; C -0.099; Q -0.328; I -0.169; M 0.083; P -0.3; Y -0.177; S -0.012; E -0.39; H -0.413; L -0.082
Y5: L -0.322; N -0.564; I -0.094; P -0.526; G -0.812; K -0.183
N7: Y -0.712; W -0.958; P 0.017; R -0.174; S -0.107; F -1.24; I -1.17; T -0.215; M -0.76; A -0.145; C -0.455; E -0.058; G -0.365; V -0.841
K8: P -1.11; A -1.12; R -0.22; I -1.43; E -0.634; Y -0.554; H -1.09; V -1.15; C -1.11; N -0.362; S -0.995; L -1.02; Q -0.858; G -0.217; M -0.639; D -0.325; F -1.13; T -0.951; W -0.942
E16: W 0.173; A -0.14; P 0.159; S -0.036; K 0.095; L -0.194; F 0.304; R 0.054; Y -0.096; D 0.016; M -0.04; H -0.133; V -0.168; C 0.082; I 0.009; T -0.065
S23: L -0.211; I -0.432; M -0.36; T -0.075; P -0.12; F -0.614; R 0.276; N -0.074; G -0.182; E -0.116; Q -0.404; V -0.101; H -0.103; A -0.177; W -0.091; K 0.262; D -0.002; C -0.119; Y -0.364
